Assay [1] concerns the target T1, GDF15 (ligand used in the GFRAL/RET cell assays) (UniProt Q99988 197-308, limits assumed).
T1 sequence (looked up): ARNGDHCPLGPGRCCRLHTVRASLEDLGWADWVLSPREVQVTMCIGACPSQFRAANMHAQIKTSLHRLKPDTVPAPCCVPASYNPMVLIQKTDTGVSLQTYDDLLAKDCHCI
Kind of assay: cell-based or functional assay.

Assay [2] addresses T2, Human GDF15 Fc (human, UniProt Q99988 195-308, limits assumed, biotinylated (EZ-Link Sulfo-NHS-Biotinylation Kit) in the SPR assay).
T2 construct: also called human GDF15-Fc fusion; biotinylated Human GDF15 Fc; not shown: Fc part
T2 sequence: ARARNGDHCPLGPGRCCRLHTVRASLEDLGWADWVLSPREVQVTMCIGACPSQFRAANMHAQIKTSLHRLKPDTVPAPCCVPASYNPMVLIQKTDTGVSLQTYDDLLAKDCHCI
Kind of assay: BLI Octet; antigen on sensor, 100 nM Fab (monovalent).

Assay [3] addresses T3, Cyno GDF15 Fc (cyno, UniProt G7PWZ3 193-308, limits assumed).
T3 construct: also called cyno GDF15-Fc fusion; not shown: Fc part
T3 sequence: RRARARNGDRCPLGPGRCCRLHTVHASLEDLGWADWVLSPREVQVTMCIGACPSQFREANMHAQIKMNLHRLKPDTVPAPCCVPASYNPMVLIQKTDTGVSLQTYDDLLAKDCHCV
The assay is described as above.

Assay [4] deals with T4, Mouse GDF15 Fc (mouse, UniProt Q9Z0J7 189-303, limits assumed).
T4 construct: also called mouse GDF15-Fc fusion; not shown: Fc part
T4 sequence (looked up): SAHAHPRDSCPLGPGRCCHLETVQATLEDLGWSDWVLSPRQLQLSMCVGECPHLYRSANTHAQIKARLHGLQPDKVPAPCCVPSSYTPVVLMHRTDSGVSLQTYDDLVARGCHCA
Described as above.

Assay [5] addresses T2, Human GDF15 Fc. Kind of assay: SPR Biacore 8K; biotinylated antigen captured, Fab analyte. On the procedure: Kinetic analysis was conducted at 25° C. in HBS-EP+running buffer (10 mM HEPES pH 7.4, 150 mM NaCl, 3 mM EDTA, 0.05% Surfactant P20) using a Biacore 8K optical biosensor (Cytiva, Marlborough, MA). The sample compartment was maintained at 10° C. for the duration of the experiment. The Biacore 8K can analyze up to 8 separate interactions in a single cycle.
Each experiment cycle began with an injection (300 s at 2 μL/min) overflow cells 1 and 2 of a 1:100 solution of biotin CAPture reagent (Cytiva) in running buffer. This was followed by an injection (45 s at 10.0 μL/min) of biotinylated human GDF15 (5 nM) overflow cell 2. […] The dissociation of the antibodies were monitored for 3420 s. Finally, an injection (120 s at 10 μL/min) of regeneration solution (6 M Guanidine-HCl in 0.25 M NaOH) overflow cells 1 and 2 prepared the sensor surface for another cycle. Several blank buffer samples were injected (300 s at 30 μL/min) overflow cells 1 and 2 throughout the duration of the experiment and used for reference surface subtraction—each were monitored for the same amount of dissociation time (3420 s) and regenerated under the same conditions as those for the Fab sample injections.
(In general: In SPR one partner is held on a chip, and binding of the other changes the refractive index at the surface.)

Assay [6] addresses T5, GDNF (UniProt P39905 78-211).
T5 sequence (looked up): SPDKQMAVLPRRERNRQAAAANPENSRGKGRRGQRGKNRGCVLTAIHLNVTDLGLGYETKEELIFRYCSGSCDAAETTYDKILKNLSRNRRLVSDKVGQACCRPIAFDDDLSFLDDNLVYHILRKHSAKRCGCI
The assay can be described thus: BLI Octet; IgG on sensor.

Assay [7] has as its target GDF8 (UniProt O14793 267-375). The assay can be described thus: BLI Octet; IgG on sensor. (Biolayer interferometry detects binding as a change in optical thickness at a sensor tip.)
The target in assay [8] is T6, GDF10 (UniProt P55107 369-478).
T6 sequence (looked up): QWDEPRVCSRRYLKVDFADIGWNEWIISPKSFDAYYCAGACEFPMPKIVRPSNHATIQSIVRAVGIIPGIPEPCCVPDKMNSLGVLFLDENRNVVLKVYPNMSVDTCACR
Kind of assay: BLI Octet; IgG on sensor.

Assay [9] concerns the target T7, GDF11 (UniProt O95390 299-407).
T7 construct: Also used as ligand in the Activin 2B receptor/SMAD reporter assay
Kind of assay: BLI Octet; IgG on sensor.

Assay [10] concerns the target T2, Human GDF15 Fc. Kind of assay: BLI Octet; IgG on sensor, 100 nM antigen (avid). As to the method:
Briefly, ForteBio affinity measurements were performed by loading IgGs on-line onto AHC sensors. Sensors were equilibrated off-line in assay buffer for 30 min and then monitored on-line for 60 seconds for baseline establishment. Sensors with loaded IgGs were exposed to 100 nM antigen for 3 minutes, and afterwards were transferred to assay buffer for 3 min for off-rate measurement. All kinetics were analyzed using the 1:1 binding model.

The target of assay [11] is T8, Human Activin B (human, UniProt P09529 293-407).
T8 sequence (looked up): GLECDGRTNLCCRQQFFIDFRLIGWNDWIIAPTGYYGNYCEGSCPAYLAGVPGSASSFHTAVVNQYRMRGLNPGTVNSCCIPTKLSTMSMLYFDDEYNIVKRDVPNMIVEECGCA
The assay can be described thus: BLI Octet; IgG on sensor, 100 nM antigen (avid).

Assay [12] concerns the target T9, Human BMP9 (human, UniProt Q9UK05 320-429).
T9 sequence (looked up): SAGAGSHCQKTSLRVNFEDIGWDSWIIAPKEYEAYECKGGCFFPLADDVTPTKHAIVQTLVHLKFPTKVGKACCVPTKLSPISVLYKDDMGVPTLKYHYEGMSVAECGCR
The assay can be described thus: BLI Octet; IgG on sensor, 100 nM antigen (avid).

The target of assay [13] is T10, Human BMP10 (human, UniProt O95393 317-424).
T10 sequence (looked up): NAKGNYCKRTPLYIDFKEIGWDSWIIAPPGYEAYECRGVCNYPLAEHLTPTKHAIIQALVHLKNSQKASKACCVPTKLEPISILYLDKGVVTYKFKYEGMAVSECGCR
Kind of assay: BLI Octet; IgG on sensor.

The Kd is the constant that tells how readily two partners part at equilibrium. High values mean weaker binding, low ones tighter binding. By koff is commonly meant a measure of how fast the partners let go of each other. Read a low koff as slow dissociation. In general, kon refers to a measure of how fast the partners come together. Read a high kon as fast association.

T7 sequence (O95390 299-407 limits assumed): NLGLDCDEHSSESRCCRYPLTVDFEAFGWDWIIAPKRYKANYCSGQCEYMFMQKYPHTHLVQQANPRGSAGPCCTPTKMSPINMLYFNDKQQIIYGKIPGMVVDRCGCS

B1: GDF15 antibody agent Clone M, Fab (Fab, V domains shown)
VH: QVQLVQSGAEVKKPGASVKVSCKASGYTFDSYGINWVRQAPGQGLEWMGWISAYSGDTAYAQELQGRVTMTTDTSTSTAYMELRSLRSDDTAVYYCVRDTQYGGSPYWGQGTLVTVSS
VL: EIVMTQSPATLSVSPGERATLSCRASQSVSSNLAWYQQKPGQAPRLLIYGASTRATGIPARFSGSGSGTEFTLTISSLQSEDFAVYYCQQYNNWPITFGGGTKVEIK
notes: Fab; CH1 and CL of the Fab not specified; also called Fab of Clone M
With B1, the “GDF15 GFRAL RET pERK Fab IC50 pM” value in [1] came to 1370 pM. The Kd is 3.88 nM in assay [2], 1.91 nM in [3], 31.4 nM in assay [4] and 0.599 nM in assay [5]. In assay [5], the koff is 0.00191 s⁻¹. Further, the kon in assay [5] came out at 3.2e+06 M⁻¹ s⁻¹.

B2: GDF15 antibody agent Clone B, IgG (antibody, V domains shown)
VH: QVQLQESGPGLVKPSQTLSLTCTVSGGSISSGGIYWTWIRQHPGKGLEWIGAIAYSGSTYYNPSLKSRVTISVDTSKNQFSLKLSSVTAADTAVYYCARGIEYQHFDYWGQGTLVTVSS
VL: not shown
Take B2: the “GDF15-GFRAL RET pERK IC50 (pM)” value in assay [1] stood at 104 pM. Further, the “GDF15-GFRAL-RET Luciferase IC50 (pM)” value in assay [1] was 66.2 pM. Moreover, the binding result in assay [6] is “no binding (tested: 100 nM)”; in assay [7], “no binding (tested: 100 nM)”; in assay [8] it was “no binding (tested: 100 nM)”; in [9], “no binding (tested: 100 nM)”; in [12], “binds”. The Kd in [10] amounted to 0.26 nM; in assay [11], 145 nM.

B3: GDF15 antibody agent Clone R, IgG (antibody, V domains shown)
VH: QVQLQESGPGLVKPSQTLSLTCTVSGGSISSGGIYWTWIRQHPGKGLEWIGAIAYSGSTYYNPSLESRVTISVDTSKNQFSLKLSSVTAADTAVYYCARGIEYQHFDYWGQGTLVTVSS
VL: not shown
Consider B3, for which the binding result is on record as “no binding (tested: 100 nM)” in assay [6]; “no binding (tested: 100 nM)” in [7]; “no binding (tested: 100 nM)” in assay [8]; “no binding (tested: 100 nM)” in assay [9]; “binds” in [12]. Moreover, the Kd in assay [11] worked out at 188 nM.

B4: GDF15 antibody agent Clone Q, IgG (antibody, V domains shown)
VH: QVQLQESGPGLVKPSQTLSLTCTVSGGSISSGGIYWTWIRQHPGKGLEWIGAIAYSGSTYYNPSLKSRVTISVDTSKNQFSLKLSSVTAADTAVYYCARGIEYQHFDYWGQGTLVTVSS
VL: not shown
Regarding B4, the binding result in assay [6] is reported as “no binding (tested: 100 nM)”; in assay [7], “no binding (tested: 100 nM)”; in [8], “no binding (tested: 100 nM)”; in assay [9], “no binding (tested: 100 nM)”; in [13] it was “no binding (tested: 100 nM)”; in assay [12], “binds”. Further, the Kd in assay [11] is 172 nM.

B5: GDF15 antibody agent Clone I, Fab (Fab, V domains shown)
VH: QVQLVQSGAEVKKPGASVKVSCKASGYTFTDEGINWVRQAPGQGLEWMGWITAYSGDTVYAQKLQGRVTMTTDTSTSTAYMELRSLRSDDTAVYYCARGPGQYADVDVWGQGTMVTVSS
VL: DIQMTQSPSSVSASVGDRVTITCRASQGISSWLAWYQQKPGKAPKLLIYAASSLQSGVPSRFSGSGSGTDFTLTISSLQPEDFATYYCQQANSFPITFGGGTKVEIK
notes: Fab; CH1 and CL of the Fab not specified; also called Fab of Clone I
Take B5: the “GDF15 GFRAL RET pERK Fab IC50 pM” value in assay [1] was 111 pM. Moreover, the Kd in assay [2] is 1.25 nM; in assay [3], 1.38 nM; in [4] it was 1.45 nM; in assay [5], 0.0672 nM. Also, the koff in assay [5] turned out to be 0.000259 s⁻¹. For the same molecule, the kon in [5] came out at 3.85e+06 M⁻¹ s⁻¹.

B6: GDF15 antibody agent Clone K, Fab (Fab, V domains shown)
VH: QVQLVQSGAEVKKPGASVKVSCKASGYTFTNEGISWVRQAPGQGLEWMGWISAYTADTFYAQKLQGRVTMTTDTSTSTAYMELRSLRSDDTAVYYCARTRHDTSGLRFDYWGQGTLVTVSS
VL: DIQMTQSPSSVSASVGDRVTITCRASQGIDSWLAWYQQKPGKAPKLLIYAASSLQSGVPSRFSGSGSGTDFTLTISSLQPEDFATYYCQQVHSFPITFGGGTKVEIK
notes: Fab; CH1 and CL of the Fab not specified; also called Fab of Clone K
As for B6, in [1], the “GDF15 GFRAL RET pERK Fab IC50 pM” value came out at 169 pM. Moreover, the Kd worked out at 2.11 nM in [2], 2.4 nM in assay [3], 333 nM in assay [4] and 0.23 nM in assay [5]. Moreover, the koff in assay [5] came out at 0.00112 s⁻¹. For the same molecule, the kon in assay [5] was determined as 4.87e+06 M⁻¹ s⁻¹.

B7: GDF15 antibody agent Clone L, Fab (Fab, V domains shown)
VH: QVQLVQSGAEVKKPGASVKVSCKASGYTFASYDIIWVRQAPGQGLEWMGWISALSGDTVYAQKLQGRVTMTTDTSTSTAYMELRSLRSDDTAVYYCARTRHDTSGIRFDYWGQGTLVTVSS
VL: DIQMTQSPSSVSASVGDRVTITCRASQGIDSWLAWYQQKPGKAPKLLIYAASSLQSGVPSRFSGSGSGTDFTLTISSLQPEDFATYYCQQVHSFPITFGGGTKVEIK
notes: Fab; CH1 and CL of the Fab not specified; also called Fab of Clone L
Regarding B7, the “GDF15 GFRAL RET pERK Fab IC50 pM” value in assay [1] was found to be 2.1 µM. In addition, the Kd is 1.58 nM in [2], 1.56 nM in [3], 229 nM in assay [4] and 0.144 nM in [5]. The dissociation rate constant (koff) in assay [5] stood at 0.000576 s⁻¹. In [5], this molecule displayed a kon of 3.99e+06 M⁻¹ s⁻¹.

B8: GDF15 antibody agent Clone H, Fab (Fab, V domains shown)
VH: QVQLVQSGAEVKKPGSSVKVSCKASGGTFSSYYISWVRQAPGQGLEWMGGIAPISGTASYAQKFQGRVTITADESTSTAYMELSSLRSEDTAVYYCARGLAYDGYFDLWGRGTLVTVSS
VL: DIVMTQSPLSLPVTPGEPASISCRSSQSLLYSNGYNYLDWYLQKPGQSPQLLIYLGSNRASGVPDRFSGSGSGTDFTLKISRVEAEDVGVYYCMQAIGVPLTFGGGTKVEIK
notes: Fab; CH1 and CL of the Fab not specified; also called Fab of Clone H
On to B8, for which the “GDF15 GFRAL RET pERK Fab IC50 pM” value in assay [1] was 24.6 pM. Also, the Kd in assay [2] was 1.24 nM; in assay [3], 1.42 nM; in assay [4], 50.9 nM; in assay [5], 0.117 nM. Also, in assay [5], the koff turned out to be 0.000735 s⁻¹. This molecule came in with a kon in [5] of 6.29e+06 M⁻¹ s⁻¹.

For the origin of these results see US20250382359A1 (BYOMASS, published 2025).
